Measured values: patent US20210139574A1 (UCB, published 2021)
Blank lines part the entries; values can stand above or below the binder they belong to. Square brackets hold non-standard residues; d marks the D form. Ends that are not written are not given here. Tyr(3-NO2) = N[C@@H](Cc1ccc(O)c([N+](=O)[O-])c1)C(=O)O; pS = N[C@@H](COP(=O)(O)O)C(=O)O

B1: Tau-binding antibody having the light chain of SEQ ID No.: 17 and the heavy chain of SEQ ID No.:23 (antibody, human IgG1, kappa)
light: DIQMTQSPSSLSASVGDRVTITCQASQSVSSYLAWYQQKPGKAPKLLIYAASYLASGVPSRFSGSGSGTDFTLTISSLQPEDFATYYCQQGYTRTDIDNTFGGGTKVEIKRTVAAPSVFIFPPSDEQLKSGTASVVCLLNNFYPREAKVQWKVDNALQSGNSQESVTEQDSKDSTYSLSSTLTLSKADYEKHKVYACEVTHQGLSSPVTKSFNRGEC
heavy: not shown
B2: Tau-binding antibody having the light chain of SEQ ID No.: 17 and the heavy chain of SEQ ID No.:21 (antibody, human IgG4 S228P, kappa)
light: B1 light
heavy: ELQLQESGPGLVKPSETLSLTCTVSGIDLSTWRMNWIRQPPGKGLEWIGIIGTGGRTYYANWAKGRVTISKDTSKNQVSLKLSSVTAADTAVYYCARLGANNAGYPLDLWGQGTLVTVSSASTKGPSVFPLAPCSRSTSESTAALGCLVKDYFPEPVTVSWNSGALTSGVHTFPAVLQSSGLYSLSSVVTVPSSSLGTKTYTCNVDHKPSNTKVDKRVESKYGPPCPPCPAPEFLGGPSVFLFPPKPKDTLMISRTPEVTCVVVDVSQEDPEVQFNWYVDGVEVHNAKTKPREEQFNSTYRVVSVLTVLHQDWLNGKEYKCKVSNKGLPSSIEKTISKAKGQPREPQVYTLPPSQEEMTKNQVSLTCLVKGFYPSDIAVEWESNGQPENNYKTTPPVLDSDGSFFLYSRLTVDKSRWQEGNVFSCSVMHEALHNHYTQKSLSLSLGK
B3: Tau-binding humanised antibody having the light chain of SEQ ID NO: 17 and the heavy chain of SEQ ID NO: 20 (antibody, human IgG4 S228P, kappa)
light: B1 light
heavy: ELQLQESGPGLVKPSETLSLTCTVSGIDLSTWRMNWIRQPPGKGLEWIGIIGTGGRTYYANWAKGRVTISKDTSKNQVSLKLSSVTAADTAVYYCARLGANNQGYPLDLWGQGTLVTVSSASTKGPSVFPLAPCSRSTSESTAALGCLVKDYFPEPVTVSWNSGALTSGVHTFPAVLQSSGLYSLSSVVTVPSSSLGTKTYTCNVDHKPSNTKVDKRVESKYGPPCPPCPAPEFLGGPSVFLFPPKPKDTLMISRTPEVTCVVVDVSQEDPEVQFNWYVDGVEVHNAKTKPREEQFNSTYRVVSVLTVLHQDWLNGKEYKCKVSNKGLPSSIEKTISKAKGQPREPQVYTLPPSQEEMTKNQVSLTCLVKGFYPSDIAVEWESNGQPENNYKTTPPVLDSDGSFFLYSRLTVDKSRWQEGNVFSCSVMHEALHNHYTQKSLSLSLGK
B4: Tau-binding antibody having the light chain of SEQ ID No.: 17 and the heavy chain of SEQ ID No.:24 (antibody, human IgG1, kappa)
light: B1 light
heavy: not shown
B5: AB1 having a murinised VL of SEQ ID NO: 9 and a murinised VH of SEQ ID NO.: 10 (antibody, V domains shown)
VH: QVQLKESGPGLVAPSQSLSITCTVSGIDLSTWRMNWVRQPPGKGLEWIGIIGTGGRTYYANWAKGRFSISKDSTQVFLKMNSLQTEDTATYFCARLGANNNGYPLDLWGAGTTVTVSS
VL: DVVMTQSPASLAVSLGQRATISCQASQSVSSYLAWYQQKPGQPPKLLIYAASYLASGVPSRFKGSGSGTEFTLNIHPVEEEDAATYYCQQGYTRTDIDNTFGGGTKLEIK
B6: mFab from murinised mAB1 antibody with light chain of SEQ ID No.: 58 and heavy chain of SEQ ID No.: 59 (Fab, V domains shown)
VH: B5 VH
VL: DVVMTQSPASLAVSLGQRATISCQASQSVSSYLAWYQQKPGQPPKLLIYAASYLASGVPSRFKGSGSGTEFTLNIHPVEEEDAATYYCQQGYTRTDIDNTFGGGTKLEIKR
notes: Fab made by ficin cleavage of the whole antibody; also called mFab from mAB1

How the values were obtained:
[1] = target: T1, Tau seeds: sonicated human insoluble Tau from patients with progressive supranuclear palsy (PSP-PHF, fraction … (human, UniProt P10636-8 2-441, limits assumed)); test: cell-based or functional assay
T1 sequence (P10636 other isoform, or with tags, fused parts or gaps limits assumed): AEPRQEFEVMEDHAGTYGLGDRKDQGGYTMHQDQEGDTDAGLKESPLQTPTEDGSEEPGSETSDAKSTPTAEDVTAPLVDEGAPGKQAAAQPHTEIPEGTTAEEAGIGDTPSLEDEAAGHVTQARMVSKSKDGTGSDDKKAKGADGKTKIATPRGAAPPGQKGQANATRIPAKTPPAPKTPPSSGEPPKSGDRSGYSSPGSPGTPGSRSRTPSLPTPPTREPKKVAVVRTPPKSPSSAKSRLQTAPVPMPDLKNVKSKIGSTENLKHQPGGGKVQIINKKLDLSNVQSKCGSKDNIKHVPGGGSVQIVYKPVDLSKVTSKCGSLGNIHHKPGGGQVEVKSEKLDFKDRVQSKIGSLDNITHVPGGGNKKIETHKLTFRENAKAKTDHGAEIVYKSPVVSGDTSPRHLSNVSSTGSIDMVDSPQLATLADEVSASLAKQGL

[2] = target: T2, Tau seeds: sonicated human insoluble Tau from patients with Alzheimer's disease (AD-PHF, fraction 8) (human, UniProt P10636-8 2-441, limits assumed); test: cell-based or functional assay
T2 sequence (P10636 other isoform, or with tags, fused parts or gaps limits assumed): as above

[3] = target: Tau seeds: sonicated human insoluble Tau from patients with frontotemporal dementia (FTD-PHF) (human, UniProt P10636-8 2-441, limits assumed); test: cell-based or functional assay
Chain of Tau seeds: sonicated human insoluble Tau from patients with frontotemporal dementia (FTD-PHF) (P10636 other isoform, or with tags, fused parts or gaps limits assumed): as above

[4] = target: T2, Tau seeds: sonicated human insoluble …; test: cell-based or functional assay; remark: listed apart in the source
[5] = target: T1, Tau seeds: sonicated human insoluble …; test: cell-based or functional assay; remark: listed apart in the source
[6] = target: T3, Tau seeds: brain fraction from transgenic mice expressing human Tau P301L (human, UniProt P10636-8 1-441, limits assumed); test: cell-based or functional assay
T3 sequence (P10636 other isoform, or with tags, fused parts or gaps P301L P301L limits assumed): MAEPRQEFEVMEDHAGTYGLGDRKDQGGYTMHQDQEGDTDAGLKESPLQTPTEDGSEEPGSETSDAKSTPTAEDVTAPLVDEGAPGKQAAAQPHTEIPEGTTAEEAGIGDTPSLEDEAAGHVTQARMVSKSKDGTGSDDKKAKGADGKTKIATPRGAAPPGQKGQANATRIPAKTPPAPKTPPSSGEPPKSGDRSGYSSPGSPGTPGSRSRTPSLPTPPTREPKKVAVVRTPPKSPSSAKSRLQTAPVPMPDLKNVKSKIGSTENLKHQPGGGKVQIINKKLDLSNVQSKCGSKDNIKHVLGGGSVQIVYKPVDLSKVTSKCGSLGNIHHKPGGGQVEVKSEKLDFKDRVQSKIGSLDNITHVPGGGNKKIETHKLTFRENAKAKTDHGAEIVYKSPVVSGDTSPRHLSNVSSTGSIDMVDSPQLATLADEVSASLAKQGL

[7] = target: T3, Tau seeds: brain fraction from …; test: cell-based or functional assay; remark: listed apart in the source
[8] = target: T4, insoluble Tau protein preparation from Alzheimer's disease patients (AD-PHF), immobilised for Biacore (human, UniProt P10636-8 2-441, limits assumed); test: SPR (Biacore T200), AD-PHF (fraction 11) amine-immobilised on CM5, mFab as analyte
T4 construct: also called AD-PHF, fraction 11; Tau PHF fibrils from Alzheimer's disease patients
T4 sequence (P10636 other isoform, or with tags, fused parts or gaps limits assumed): as the sequence (P10636 other isoform, or with tags, fused parts or gaps limits assumed) above
Description: (§1) Selected monoclonal Fab fragments (mFab) were prepared from murinised mAB 1 antibody with light chain of SEQ ID No.: 58 and heavy chain of SEQ ID No.: 59 using the Pierce Ficin cleavage kit (Cat. No. 44980, Thermo Scientific) according to the protocol of the manufacturer. Absorption at 280 nm was used to determine the concentration of the Fab stock solutions for the Biacore analysis. An insoluble Tau protein preparation from Alzheimer's disease patients (AD-PHF, fraction 11), the HEK-derived Tau isoform-2 monomers (amino acids 1-441), and the isoform-2 monomers expressed in E. coli were amine immobilized onto the CM5 chip, and binding of anti-Tau mFabs was measured with the Biacore T200 instrument. The buffer HBS-EP from GE Healthcare was used for immobilizations apart from the AD-PHF for which 10 mM acetic acid (pH3.0) was used. The HBS-EP+ buffer was supplemented with 300 mM NaCl and 1.25% CM-Dextran (Sigma) and used as the assay buffer. While flow cell (Fc) 1 was used as a reference, the following RU values were obtained for Fc2-4: 44 RU with 5 ug/ml E. coli Tau, 56 RU with 5 ug/m HEK Tau, and 500 RU with a 1:20 diluted solution of the AD-PHF material. Two 60 s cycles of 10 mM Glycine (pH1.7) were used for regeneration. Flow rates of 10 ul/min were used for immobilization and regeneration while a 30 ul/min flow rate was used for analyte binding. For AD-PHF, multiple manual injections were applied to reach 500 RU, including EDC/NHS and EtoA capping. Five start-up cycles and 12 cycles per mFab sample or buffer control were applied, using 90 uls analyte injections for either 180 s or 300 s for dissociation. 11 1:3 dilutions of a 600 nM solution plus buffer were used for each mFab.

[9] = target: T5, HEK-derived Tau isoform-2 monomers (amino acids 1-441) (human, UniProt P10636 1-758); test: SPR (Biacore T200), Tau amine-immobilised on CM5, mFab as analyte
T5 construct: Expressed in Expi293F cells, N-terminal 10His-TEV tag removed with TEV protease; phosphorylation state not described; also called HEK iso-2; HEK Tau
T5 sequence (P10636 other isoform, or with tags, fused parts or gaps): as the sequence (P10636 other isoform, or with tags, fused parts or gaps P301L P301L limits assumed) above, with L301P counted along it
Description: as §1, with “For AD-PHF, multiple manual injections were applied to reach 500 RU, including EDC/NHS and EtoA capping. Five start-up cycles and 12 cycles per mFab sample or buffer control were applied, using 90 uls analyte injections for either 180 s or 300 s for dissociation. 11 1:3 dilutions of a 600 nM solution plus buffer were used for each mFab.” left out

[10] = target: B3; test: SPR competition: no significant inhibition of L17H20 binding to immobilised HEK Tau isoform-2
Description: Recombinant Tau isoform-2 monomer (amino acids 1-441), expressed and purified from HEK cells, and insoluble Tau protein in the form of a paired helical filament preparation isolated from Alzheimer's disease patient brain (AD-PHF), were amine immobilized onto the CM5 chip using a Biacore 3000 instrument and HBS-EP (GE Healthcare) as running buffer. The former were amine coupled to flow cells 2 and 4 respectively following activation of the carboxymethyl dextran surface these and reference flow cells by injection of 70 μl of a fresh mixture of 50 mM N-hydroxysuccimide and 200 mM 1-ethyl-3-(3-dimethylaminopropyl)-carbodiimide at a flow rate of 10 μl/min. Immobilization of tau monomer was achieved by injecting 160 μl at 50 μg/ml in 10 mM acetate pH 5.0 buffer, whereas AD-PHF was immobilized by injecting twenty 160 μl aliquots at 2 μg/ml in 10 mM acetic acid (pH3.0). […]
Epitope mapping was carried out by pre-incubating solutions of a Tau-binding humanised antibody having the light chain of SEQ ID NO: 17 and the heavy chain of SEQ ID NO: 20 (L17H20) and test peptide or buffer controls, prepared in running buffer at 200 nM and 5000 nM respectively. […] Response units of antibody binding were recorded at report points taken 15 sec after the end of each injection as the difference between values of test and reference flow cells. […]

Binder: B1
Imax (maximal efficacy at 300 nM), cellular Tau aggregation assay [1]: 49%

Binder: B2
IC50, cellular Tau aggregation assay [1]: 66 nM
Imax (maximal efficacy at 300 nM), cellular Tau aggregation assay [1]: 47%

Binder: B3
IC50, cellular Tau aggregation assay [2]: 2 nM
Imax (maximal efficacy at 300 nM), cellular Tau aggregation assay [2]: 85%
IC50, cellular Tau aggregation assay [1]: 42 nM
Imax (maximal efficacy at 300 nM), cellular Tau aggregation assay [1]: 65%
IC50, cellular Tau aggregation assay [3]: 1 nM
Imax (maximal efficacy at 300 nM), cellular Tau aggregation assay [3]: 79%

Binder: B4
Imax (maximal efficacy at 300 nM), cellular Tau aggregation assay [1]: 47%

Binder: B5
IC50, cellular Tau aggregation assay (n=3) [4]: 27 nM
IC50, cellular Tau aggregation assay (n=3) [5]: 70 nM
IC50, cellular Tau aggregation assay (n=2) [6]: 15 nM
IC50, cellular Tau aggregation assay [2]: 10 nM
Imax (maximal efficacy at 300 nM), cellular Tau aggregation assay [2]: 79%
Imax (maximal efficacy at 300 nM), cellular Tau aggregation assay [1]: 54%
IC50, cellular Tau aggregation assay [7]: 9 nM
Imax (maximal efficacy at 300 nM), cellular Tau aggregation assay [7]: 81%
IC50, cellular Tau aggregation assay [3]: 1 nM
Imax (maximal efficacy at 300 nM), cellular Tau aggregation assay [3]: 81%

Binder: B6
Kd [8]: 590 nM
koff [8]: 0.047 s⁻¹
kon [8]: 79600 M⁻¹ s⁻¹
binding result [9]: no binding (tested: 600 nM)

binding result [10]: no binding (tested: 5000 nM peptide)
Binder: [Tyr(3-NO2)][pS][pS]PG [T197H test peptide (nY pS pS P G)]
